In the DeepSol protein solubility set:

Assay: soluble on expression in E. coli; label from the status in PepcDB or PDB records

Sequence	soluble on expression in E. coli
MSLNKNEKVKIAYVGIGNRGQQIIEDFARTGMVEVVALCDVDMGAKHTQKVIGMYPKAKQFRDFRQMFDKAGKEFDAVAIATPDHSHFPISMLALASGKHVYVEKPLARTFYEAELLMQAALKRPNLATQVGNQGHSEANYFQFKAWMDAGIIKDVTAVTAHMNNEGHHHHHH	not soluble
MSSDFPTDPYSTAQQKWLYQDHLVLPTLEKLLKYNLKDKKVLDIGCGNGLNSTTFLQWGARKVVGFDNSQEMIENCKNLHKSSEQSSFHHLNVTDFQLDEKFHVATAVFVLQYVHDKEELRKAIRLIWERKLRNGWFRLWMEDL	not soluble
MALKDRFDKIISYFDTDDVSENEVHEVQERTSVQRDSRAATAQEASQRSHMTNSAEEEMIGSRPRTYTYDPNRQERQRVQRDNAYQQATPRVQNKDSVRQQREQVTIALKYPRKYEDAQEIVDLLIVNECVLIDFQYMLDAQARRCLDYIDGASRVLYGSLQKVGSSMFLLTPANVMVDIEEMNIPKTGQETSFDFDMKRRLEHHHHHH	not soluble
NDSLVLFSTDLKLLWANRSAEHLYGDYVEQLVGQEFTSLKGARGIPSDAIAVRASLGSGEPCYERVSAADGRIWDMKYFPVRGED	not soluble
MAHHHHHHMEEGAPTPAAPVGEDQEVAAAPATEEPASIMQVENTNFNWADDDIQFQIRQPQYAAEYPVSVLENLARNVTFKVPEDQNTMTSAIEALARERQAFEQMKRNHEDAMKSREVELNAQEATLQARERQLHANTETLAAERQQLILQQSQFRAQQAQAQAQSQAQAQTQSQPRTSSQTQSPAAQVSPSPAQAAQPAHAPQLQHQMPPPHQQPQPRSGNVYMGGGYGAQEWQPDQRTWGNEGAMGAPGFDMYQGAYPGSYAQRNYHMAGGHRGQMRSGNLPQQQFPGNRMQPMMPPPQQYSRSMAPLGAARQQQMDMNFGGRSQQSYNPAPNTGYPQRSAQW	soluble
MVVFVQSRKRWTYSSAHLLVEEYPSKKVDFKEFASKLTEDEINLRVMPIFWVAGHDNAVLSSTISDSTVALLSRWDVIAAMEAVSRYKVTSMYLTFDMYWQILEHPERELEIFEDLYTFKLCEKGLTVQLREKWKEVAGAILREARTS	not soluble
GSMLISHSDMNQQLKSAGIGFNATELHGFLSGLLCGGLKDQSWLPLLYQFSNDNHAYPTGLVQPVTELYEQISQTLSDVEGFTFELGLTEDENVFTQADSLSDWANQFLLGIGLAQPELAKEKGEIGEAVDDLQDICQLGYDEDDNEEELAEALEEIIEYVRTIAMLFYSHFNEGEIESKPVLH	soluble
MGSDKIHHHHHHMRFIAGPLNKQLLQNLLGEVIESCTRVRAAVAYASRDNMKLFEACAQHLKPLEFFGRYDHTVAVDPAVLKWFLDKASPNYDCKLVPDILHAKIIWWVDAGAYIGSANLSDRAWISNIEAGTFLPHDELVETGMERELQRFFEEVDDRARPLTKEIYQEQLRLADRRSELSKREYGLEQQFDKDRLLPKNHGLVFVDTKRSSEKRFQKFEQDWNDTLQVMRSIASRVAAPGAKPAWIDASVAPGVQADQFLHAYYYKQVKDGNRHPYEEFFDRNSKNPELALRDALEWWHDADFDHSFEERTIYEWSPRLRELLARDRILKLTEQEFVDAVSRVHAIRDHAIKQENEHLGLPDRPQAGDDKVEKFGEWLWRQRSREGRTVLELLNYVVWGNGSVSARLWNAIRSDDWAIPHIGLSSLGEIVGWARPDEYPPRNMRTSKGLRALGYNVRIGV	not soluble
LDINKPENVISKEVSFLGEALPKSIKSECPNESFTLDDKDVVKSTSGSVQNEPLKNINENIYDPKLKKALDKSKPEILIYHSHTTEAYKPYPADSLNSTQNVCAVGDELVKELGEKYGIYAINDKTVHNVVDYNKSYTRSGETLDKYLKQYGDFKMIIDMHRDSDVPKSKVTARINGEDVAKFMFVMTRKNPHFDKNMALVNGLVSICNKDFPGIFNGIYYYDYGINYYNQQKSNNAFLLEVGSDINTIDEAKGTSKYLARIIAEYLNGKK	not soluble
MAIVGQPNLRELFDDAPTPHIAHPPHTHRRDFYVATDGSYASDGAGLGVIIETRDGSRVLRRSVPDTAPDNNVAEYRALHLGLDTLAARTPPDASVGVLVDHDALAGDVNSAVLATQRRDYQPVRAFSAPRDARHHWRGIRARVTGFAEIRAAQVDSSRNPAHALANEPSQYAHVNDEPDRCLLPDATTSTEPQIPPPSRSDRPAGDLEHHHHHH	not soluble
MSLKILVIGGTGNIGLPLIQYLDQQVGVQVVAGAHNLHKDEQLLATYPDVEIRRFDFLDETTFDAALRGIQKVFFVRPPQLAKPKQDMWPFLKCLQAHHIEQVVFVSLMGVEHNPMTPHHQIEQMIEQLQLPYTFIRPSFFMQNLNTTHRVDIQQNHDLFIPAGRSKTSFIDTRDIGEIAGVALLDTQYLQQKLTVTGPEALTYQQIAALMTESFGHPVTYHRPSLWRFRRVMLKRGIKKDYVNVMVMLYLITQLGNAKRVTDTAEKVLGHAPHTMTTYLRDYADQLQEGHHHHHH	not soluble
MDTLQGMRVFARVVDSGSFTSAAQALDLSTAQVSRLISDLEAHLQTRLLHRTTRRLALTEAGERYLERCRGILEDIEVAEAEAAGAHIRPCGRLRVQSLMGMGQHHLVPMIARYGALFPDVVIELTLSQRNPDMLEEGQDVLITGERQLPDSEFVAQRLGSIHSVLCASPGYLQQHGVPRSVDDLERHVCLRLQDPAYPEGWIFADEQGERTVSPQNTFMVNVAEVMAQAAKADLGIALLPSYVAAAALRNGELLRVLPGHAMHQRTIYALYPSRRYLDAKIRTWVDLLQQELPQAFARDETTMQSSSYCAQ	not soluble
MIGYQIYVRSFRDGNLDGVGDFRGLKNAVSYLKELGIDFVWLMPVFSSISFHGYDVVDFYSFKAEYGSEREFKEMIEAFHDSGIKVVLDLPIHHTGFLHTWFQKALKGDPHYRDYYVWANKETDLDERREWDGEKIWHPLEDGRFYRGLFGPFSPDLNYDNPQVFDEMKRLVLHLLDMGVDGFRFDAAKHMRDTIEQNVRFWKYFLSDLKGIFLAEIWAEARMVDEHGRIFGYMLNFDTSHCIKEAVWKENTRVLIESIERAVIAKDYLPVNFTSNHDMSRLASFEGGFSKEKIKLSISILFTLPGVPLVFYGDELGMKGVYQKPNTEVVLDPFPWNESMCVEGQTFWKWPAYNGPFSGISVEYQKRDPDSILSHTLGWTRFRKENQWIDRAKLEFLCKEDKFLVYRLYDDQHSLKVFHNLSGEEVVFEGVKMKPYKTEVV	soluble
MTRQRFISDDHYKFQSEHFIRLHGCDISLFPLEIKGKESISDVYSYEIKCFSRTDHNSLDKLHGTRLSCEIGEQYNSLPARFIHGVVTKVIYNYDNSMQHTCIIILQPEIAELASGKRTRVWSNIKPSDIVSTILEDSLFSPPQVILYKEQNLLEYKIQYQESDLDFINRILSEAGIYYFFVHNRDKHIMTLADDPASHPKASYDKLEHLPCENLKESRHGYIREWSFTESLKCPSVTLSGYNESNVSEITIKSESKLTDVKPSKGVYEDIIPERKRELIKKRSEALIASCDSELKIWSGKTDSWWLSCGECFSLDKQDYRITSLYLNAVNNDNEHAGLCYCDLCASDNKSSLNFSREFKTPIIPGVLLARVVGPDSEEYYTDDNGRVKISFLWGEKSAAGTDKTSCWVRVSQVWSGEGFGSQFIPRIGSEVLVSFIQGNPDYPVIVGTVYNGQNTSPFSLPENNCKSGFITRSVKNGKKGEGHQLVFDDKEGEEKVIVTSSGDSLLTVKKDMISTINRSMSLTIAEGRNAEIKRGNDRLVLKEGDLHNDVHGNINIKVSNGDYNLKVSGGSGSLITDKNLTLESTQSIKIKVGANEITISTSGIDIKAAKITIEGQVSAEVKAATLKFESQAISEVKGTMLTLQGSAMTQIKGGIVNIG	not soluble
MGSDKIHHHHHHMKIALIQPKMNKRPMDTDLKTRMSPPLSLLTLMGLTPEGHEVIMVNENVEKIDYACGAELVGITITLDVMPRAVEIAEEFHRLGIPVVAGGIHVTSSPDECRGYFDAICIGAAERVWERMIEDAEESRLQQVYHDMTDFRGEEIASPAYHRIDKNRYLYTNIMTTSRGCPNRCGFCYNSCRNRMYIRRPVTDVLRDIEGLGTRHILFIDDNFIGVPAYTRELLNHLRGRELKWSAAVTTKIADYPDVLDLMAETGCQSLFIGFESINNSSLHGVNKDNQFEKYERIVTAIHSRGIMINASMVFGLDGDEPDVFQRTLDWLVKNKIETLTSHILTPYPGTELHGRMKEEGRILDHELSRYNTAHVVFQPKGMTAEELYKGYLWIYREFYSFPNIWRRRPEHKAQRKSFFLFNILYRKFGGLTSVLARIIPMRTVGRLAARISYRVK	not soluble
RRQHQHLLESLVHSTAKQQGDFTKTAELATELLCQNLAVSLVSIWIFSADQGTQSLVAQFGSMALQDTYRPSLLHTVPRYLNELKNYRHIDAGNTLIDPRLTELVDSYFIPRQILSSLDVGIRINGHLEGVLCIERAQVTHHWHDSEIHLACQMADQLALTLATKHAYDKEERLSLFRCAIEQSRQMSM	not soluble
GPGSMLVSYLRLQADRRTRHHMMVDGQINPREWFNWHPKEYQPWYFDRHKFLYEQRQYAQFHHLLCHQVYLKDMLHLMRYPEPYTHIIDCRTSTQKMHRWVPHSLWLPRDEVEYALQLSADEFLDMYGFRKPDKSDDVILLSHNGIYSEQAGWEWKKQFFQHVYNYRGGTNELFGESYSDMNVSDVLSPWKGPFPQSGVFVDKWSKRKVLTRTGPFDRQYEMQDFALPDLELEKARHPEEGPRQNMPFGLQ	not soluble
MGSDKIHHHHHHMAKVVTLTATNGETIQFVEEVKAQGGMKDVMFSPNRDYVVAFLRDPADNETKERLEMITGQYRKRIFNQEGGEYLKKLYCWPTAVVEYNGKLGVVSPFYRDCFFFQYGSRNSDMLGIQGKEKDGKWFASANNRNKFLAPEELGDWMLHLKVCLMLARAVRRMHMAGLSHSDLGYKNCLIDPTTGQACLIDIDGLVVPGKHPPTVVGTPDFIAPEVVATSHLDVKDPNRKLPSRTTDLHALAVLIYMYLLYRHPLRGDKVFDPNDPQRDEELGMGKQALFVEHPTDRSNRIKTENIRPSEHPWKDTEKMPYTLTGTYLSDLFKRAFIDGLHNPQARPTADEWEQALVKTVDLLQPCSNASCEQKWYAFDNSKHPKCPFCGTAHHGKLPVLNLYSGTPDGKFRPDNHRIMVYSNQSLFKWHADNRVFPNEKLRSEDAKRVGYFVQHNGNWWLVNEALPEIYDVKAKQAIPIGGKVKLDDGGQILLQKGIGGRLLMVQMAG	not soluble
MTDTASKYAVKLKTNFEDPKWVNRHKFMFNFLDINGNGKITLDEIVSKASDDICAKLGATPAQTQRHQEAVEAFFKKIGLDYGKEVEFPAFVNGWKELAKHDLKLWSQNKKSLIRNWGEAVFDIFDKDGSGSISLDEWKTYGGISGICPSDEDAEKTFKHCDLDNSGKLDVDEMTRQHLGFWYTLDPNADGLYGNFVP	soluble
MHMSQSTQRAYQEVLDWLEKELRKGSIAIGDKLPGERALAEQFELSRASVREAIRILTSMGLVRTGTGSGPHSGAIVISEPSAGLSWAIRMHLSARSLPLKDLVNTCILIESNAAADAATPKISPDSPERSHVLNEAHRLLDSMDDPTLPFHDYHIKDVNFHILITSLAGNLVTETIMESLRYSAIAFVIERLAMRTDWAEVSEKLQREHRNILRAIEERNPDKARTLVHDHIADFYELTSH	not soluble
MTIHLISFASILHKQASLRNSHEAILSELEKYYTVKLIDYQDMDKLGSDDFKIIFIATGGVERLVIQHFERLPRPAILLADGMQNSLAAALEISTWLRGRGMKSEILHGELPSIIQRVHILYNNFRAQRSLFGKRIGVIGTPSSWLVASNVDYLLAKRRWGIEYIDIPLERVYEHFKQITDDQVGASCAAVASQALACREGTPEDLIKAMRLYRAIKRICEEEKLEALTLSCFKLIDQIDTTGCLALSLLNDDGIMAGCEGDLQSIFTLLAVKALTGKEGFMANPSTINTRTNELILAHCTIGLKQTERYIIRNHFETEKGIAIQGLLPTGDVTIVKCGGECLDEYYLSTGTLTENTNYINMCRTQVRIRMNTPADYFLKNPLGNHHIMIHGNYEEALNEFLLSNACKRTE	not soluble
